Source: US20260250410A1 (SICHUAN HUIYU PHARMACEUTICAL, published 2026)
Like-named read-outs stand apart in the source and are kept apart here.

How the values were obtained:
[1] = biological target: T1, human CDCP1 on tumor cells (human, UniProt Q9H5V8 30-836); assay: laser confocal microscopy, HCC1806 cells, dye-labeled antibody
T1 construct: whole, on cells; cell line is named under assay or readout
T1 sequence (looked up): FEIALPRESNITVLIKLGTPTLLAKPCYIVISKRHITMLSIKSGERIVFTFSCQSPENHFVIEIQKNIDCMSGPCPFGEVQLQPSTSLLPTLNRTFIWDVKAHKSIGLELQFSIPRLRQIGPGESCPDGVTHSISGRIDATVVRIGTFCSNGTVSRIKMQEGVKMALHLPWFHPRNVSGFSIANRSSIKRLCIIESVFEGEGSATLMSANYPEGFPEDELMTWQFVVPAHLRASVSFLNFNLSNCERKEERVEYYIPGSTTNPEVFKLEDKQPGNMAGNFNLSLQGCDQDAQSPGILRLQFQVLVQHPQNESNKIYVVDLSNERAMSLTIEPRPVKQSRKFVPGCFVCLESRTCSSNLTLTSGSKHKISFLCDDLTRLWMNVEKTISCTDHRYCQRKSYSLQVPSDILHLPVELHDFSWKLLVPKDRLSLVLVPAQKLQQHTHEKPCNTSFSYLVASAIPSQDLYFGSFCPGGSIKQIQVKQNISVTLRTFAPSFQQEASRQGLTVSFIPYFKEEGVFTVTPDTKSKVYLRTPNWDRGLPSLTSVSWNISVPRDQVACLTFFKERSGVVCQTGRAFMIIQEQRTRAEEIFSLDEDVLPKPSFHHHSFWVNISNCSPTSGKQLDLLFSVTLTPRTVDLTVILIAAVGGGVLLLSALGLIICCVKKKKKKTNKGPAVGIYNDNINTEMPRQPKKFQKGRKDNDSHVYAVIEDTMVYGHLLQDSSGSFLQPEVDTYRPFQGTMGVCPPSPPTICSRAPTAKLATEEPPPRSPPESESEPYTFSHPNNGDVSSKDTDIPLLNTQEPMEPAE
Text: The lysosomes were labeled with red fluorescence, and the relative position changes and colocalization of green fluorescence and red fluorescence in the cells were detected to determine whether the antibodies were colocalized with lysosomes after endocytosis into the cells.

HuCDCP1-C = biological target: T2, HuCDCP1-C (human, UniProt Q9H5V8 30-667); assay: ELISA, coated antigen
T2 construct: range 30-667; expressed in HEK-293T, purified by Fc/his tag; also called human CDCP1-C; full-length extracellular domain of human CDCP1; not shown: Fc or his tag
T2 sequence (looked up): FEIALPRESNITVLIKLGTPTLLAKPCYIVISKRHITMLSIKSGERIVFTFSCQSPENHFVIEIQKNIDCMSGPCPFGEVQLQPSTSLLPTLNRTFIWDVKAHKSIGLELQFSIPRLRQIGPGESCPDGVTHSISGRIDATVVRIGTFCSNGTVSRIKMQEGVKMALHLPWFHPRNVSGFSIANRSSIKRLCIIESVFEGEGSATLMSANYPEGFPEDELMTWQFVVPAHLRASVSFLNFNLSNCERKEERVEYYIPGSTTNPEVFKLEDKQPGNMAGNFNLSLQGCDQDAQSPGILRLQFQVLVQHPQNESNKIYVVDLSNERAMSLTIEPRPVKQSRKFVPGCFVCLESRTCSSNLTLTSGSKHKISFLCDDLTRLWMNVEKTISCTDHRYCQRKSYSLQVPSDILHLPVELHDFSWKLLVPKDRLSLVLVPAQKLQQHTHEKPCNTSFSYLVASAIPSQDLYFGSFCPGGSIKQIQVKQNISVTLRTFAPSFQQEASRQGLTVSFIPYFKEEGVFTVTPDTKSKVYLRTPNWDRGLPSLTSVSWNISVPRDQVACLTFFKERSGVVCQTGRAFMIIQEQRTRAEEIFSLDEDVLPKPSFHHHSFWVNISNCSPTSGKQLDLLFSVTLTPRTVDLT
Method: (§1) The candidate antibodies obtained from Example 6 were subjected to gene cloning, constructed into an expression vector for a small amount of expression in CHO cells, and purified with an Fc affinity column (AT Protein A Diamond Plus. No. AA402312). Antibody purity was analyzed by HPLC and determined by Nanodrop. High-throughput affinity assay was carried out for a small amount of antibodies by Caterra. […] At the same time, 2 μg/ml antigen human CDCP1-C and 2 μg/ml human CDCP1-B were used for coating, and the antigen-antibody binding capacity was tested by ELISA for verification.

huCDCP1-his = biological target: T3, huCDCP1-his (human, UniProt Q9H5V8 30-667, limits assumed); assay: SPR (Caterra), antigen immobilized
T3 construct: also called human CDCP1 antigen; not shown: his tag
T3 sequence (looked up): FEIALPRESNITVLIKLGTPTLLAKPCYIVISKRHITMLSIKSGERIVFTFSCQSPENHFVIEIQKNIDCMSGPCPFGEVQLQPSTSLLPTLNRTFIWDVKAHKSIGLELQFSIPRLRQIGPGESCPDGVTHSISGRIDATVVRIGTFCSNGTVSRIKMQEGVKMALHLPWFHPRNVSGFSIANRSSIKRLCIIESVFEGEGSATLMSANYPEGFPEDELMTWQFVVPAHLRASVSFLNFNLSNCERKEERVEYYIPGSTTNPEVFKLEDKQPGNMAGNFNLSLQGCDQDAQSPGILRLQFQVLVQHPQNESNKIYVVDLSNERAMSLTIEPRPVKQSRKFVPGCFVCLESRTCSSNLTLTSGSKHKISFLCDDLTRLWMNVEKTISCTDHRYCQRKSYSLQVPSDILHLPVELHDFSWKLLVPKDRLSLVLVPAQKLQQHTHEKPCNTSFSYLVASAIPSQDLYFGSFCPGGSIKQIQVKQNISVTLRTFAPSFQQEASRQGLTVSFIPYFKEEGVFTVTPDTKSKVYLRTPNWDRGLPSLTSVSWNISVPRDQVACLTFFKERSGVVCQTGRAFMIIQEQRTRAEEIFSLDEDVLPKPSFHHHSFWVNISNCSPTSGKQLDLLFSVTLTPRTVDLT
Method: as §1

[2] = biological target: T1, human CDCP1 on tumor cells; assay: cell-based or functional assay
[3] = biological target: T1, human CDCP1 on tumor cells; assay: cell-based or functional assay; remark: listed apart in the source
[4] = biological target: T1, human CDCP1 on tumor cells; assay: cell-based or functional assay; remark: listed apart in the source

B1: 1CP-065 (antibody, V domains shown)
VH: EVTLKESGAELVRPGALVKLSCKASGFNIKDYYMHWVKQRPEQGLEWIGWIDPENDNTIYDPKFQGKASITADTSSNTAYLQLSSLTSEDTAVYYCARFYGSYYYAMDYWGQGTTVTVSS
VL: DIVMTQSPKFMSTSVGDRVSITCKASQDVSTAVTWYQQKPGQSPKLLIYWASTRHTGVPDRFTGSGSGTDYTLTISSVQAEDLALYYCQQHYSTPYTFGGGTKLEIK
notes: murine hybridoma mAb
binding result [1]: binds

B2: 1CP-063 (antibody, V domains shown)
VH: EVNLKESGPELVKPGASVRISCKASGYTFTSYYIHWVKQRPGQGLEWIGWIYPGNVNSKYNEKFKGKVTLTADKSSITAYMQLSSLTSEDSAVYFCAREDYGHYYAMDYWGQGTTVTVSS
VL: DIVMTQSPSSMYASLGERVTITCKASQDIKSYLSWYQQKPWKSPKTLIYYATSLADGVPSRFSGSGSGQDYSLTISSLESDDTATYYCLQYGESPWTFGGGTKLEIK
notes: murine hybridoma mAb
binding result [1]: binds

B3: SB1 (antibody, V domains shown)
VH: QVQLQQSGPDLVRPGESVKISCKGSGYTFTDHAIHWVRQSHAKSLEWIGVISFSYDNTKYNQNFKGKATMTVDKSSNTAYMELARLTSEDSAIYYCARDCYGSNRGYFDYWGQGTTLTVSS
VL: DIRMTQSPSSMYASLGERVTITCKASQDINRFLSWFLQRPGKAPKTLIYRANNLVEGVPSRFSGSGSGQDYSLIISNLEYEDMGIYYCLQYDEFPRTFGGGTKLEIK
notes: single B cell antibody, expressed in CHO
EC50 (HuCDCP1-C): 92 pM
Kd (huCDCP1-his): 1610 pM

B4: SB2 (antibody, V domains shown)
VH: DVKLVESGGGLVKPGGSLKLSCAASGFTFSSYTMSWVRQTPEKRLEWVATISSGGIYTYYPDSVKGRFTISRDNAKDTLYLQMNSLRSEDTAVYYCSSPHSYAISYGYFDYWGQGTTLTVSS
VL: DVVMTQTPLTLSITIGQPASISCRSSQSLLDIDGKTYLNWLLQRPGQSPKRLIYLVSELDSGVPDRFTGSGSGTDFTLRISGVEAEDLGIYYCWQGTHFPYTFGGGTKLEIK
notes: as for B3
EC50 (HuCDCP1-C): 45 pM
Kd (huCDCP1-his): 1440 pM

B5: SB3 (antibody, V domains shown)
VH: DVKLVESGGGLVEPGGSLKLSCAASGFPFSSYTMSWVRQTPEKRLEWVATISSGGIYTYYPDSVKGRFTISRDNAKDTLYLQMSSLRSEDTAVYYCSSPHSYAISYGYFDYWGQGTTLTVSS
VL: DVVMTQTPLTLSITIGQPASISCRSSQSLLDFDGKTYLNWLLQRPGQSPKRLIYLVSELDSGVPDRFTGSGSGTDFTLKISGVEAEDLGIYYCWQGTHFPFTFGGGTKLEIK
notes: as for B3
EC50 (HuCDCP1-C): 49 pM
Kd (huCDCP1-his): 201 pM

B6: 3B12H5-MMAE (antibody, V domains shown)
VH: EVQLQQSGTVLARPGASVKMSCKASGYSFTIYWVHWVKQRPGQGLEWIGAVYPGNDDTSYNQNFKGKAKLTAVTSATTAYMELSSLTIDDSAVYYCTRHTYDEVFDYWGQGTTVTVSS
VL: DIVMTQSPSSLSVSLGDRVTITCKASEDIYYRLAWYQQKPGNAPRLLISGGTNLEAGIPSRFSGSGSGKDYTLSITSLQTEDVAIYYCQHYWNTPWTFGGGTKLEIK
modifications: vc-MMAE coupled after reduction, sites not stated; DAR 3.2
IC50 (nM), killing of HCT116 cells (120 h), CellTiter-Glo [2]: 6.87 nM
IC50 (nM), killing of MDA-MB-231 cells (120 h), CellTiter-Glo [2]: > 40 nM
IC50 (nM), killing of PC3 cells (96 h), CellTiter-Glo [2]: 0.0225 nM

B7: 1CP-125-MMAE (antibody, human IgG1, kappa, V domains shown)
VH: QVQLVQSGAEVKKPGASVKVSCKASGYNFISYWLHWVRQAPGQGLEWMGGIYPGNTDTTYNQKFKGRVTMTADTSTSTVYMELSSLRSEDTAVYYCIRYDYDRGMDYWGQGTLVTVSS
VL: DIQMTQSPSSLSASVGDRVTITCRASEDIYYRLAWYQQKPGKAPKLLISGATALETGVPSRFSGSGSGKDYTFTISSLQPEDIATYYCQHYWNIPWTFGQGTKVEIKR
modifications: vc-MMAE coupled after reduction, sites not stated; DAR 4.3
IC50 (nM), killing of HCC1806 cells (120 h), CellTiter-Glo [3]: 0.272 nM
IC50 (nM), killing of HCT116 cells (120 h), CellTiter-Glo [4]: 0.668 nM
